For 73 sequences, protein stability index results are on record in the supplement of paper PMC10567573.

± gives the standard deviation.

The nature of this data set: protein stability index of a GFP-peptide fusion (GPS, HEK-293T) (PSI 1-6); higher = more stable. The note with it: c terminus: a fixed tail appended.
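Note: 24-mer peptide tiles fused after GFP, lentivirally expressed, FACS-sorted into six equal bins by GFP/DsRed ratio, decoded by Illumina sequencing, PSI is the read-weighted mean bin number.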

Turning to PIFVNSPTLDAPGGRALVVRKVPP [SMAD6], the protein stability index runs as follows: (treatment: DMSO) 3.23 ± 0.059; (treatment: MLN4924 1 uM, 8 h) 3.34 ± 0.29.
Take PILRLLPQGISPVSQHWATWALYN [ZER1]: the protein stability index (treatment: DMSO) was 2.78 ± 0.37 and the protein stability index (treatment: MLN4924 1 uM, 8 h) turned out to be 2.95 ± 0.34.
For PISEKAKDLILRFCIDSENRIGNS [STK38L], in that order: 2.04 ± 0.47 and 2.05 ± 0.41.
Turning to PKPCAGNQGTQITVEDLFYNIATR [MLH1], the protein stability index was 2.85 ± 0.32 (treatment: DMSO) and 2.97 ± 0.41 (treatment: MLN4924 1 uM, 8 h).
Turning to PLFEDVQMLRKTVKDEAHQAQKDP [PPP2R5C], the protein stability index runs as follows: (treatment: DMSO) 5.37 ± 0.22; (treatment: MLN4924 1 uM, 8 h) 5.3 ± 0.17.
On the same counts, the results for PLGSPSPRPRRAKRFASLSRFVET [ADAMTS4] are 3.5 ± 0.28 and 3.41 ± 0.21.
On the same counts, the results for PLHNSGLLSLDPVQDKTPLYSQLL [MED27] are 2.76 ± 0.27 and 2.92 ± 0.34.
For PMYFFLGNLSVLDVGCISVTVPSM [OR3A1], in that order: 2.65 ± 0.52 and 3.06 ± 0.65.
In the case of PPARGTLKTSNLPEELRKVFITYS [TRAF3IP2], the protein stability index reads like this: (treatment: DMSO) 2.53 ± 0.37; (treatment: MLN4924 1 uM, 8 h) 2.53 ± 0.12.
The sequence PPDKGEEQVNFCESSNDFGPYEGG [ZBTB22] had a protein stability index (treatment: DMSO) of 5.53 ± 0.098 and a protein stability index (treatment: MLN4924 1 uM, 8 h) of 5.41 ± 0.26.
In turn, PPGSHLLYAKMIQKLADLRSLNEE [VDR] registered a protein stability index (treatment: DMSO) of 2.61 ± 0.11 and a protein stability index (treatment: MLN4924 1 uM, 8 h) of 2.67 ± 0.25.
For PPPKTNLTPGQSDSAKREVKQKIS [FAN1], in that order: 5.44 ± 0.24 and 5.35 ± 0.094.
Take PPPSRPSVAVPPPPPNRMYPPPPP [WASL]: the protein stability index runs as follows: (treatment: DMSO) 4.48 ± 0.2; (treatment: MLN4924 1 uM, 8 h) 4.49 ± 0.2.
On the same counts, the results for PPSARHRAHPPQRPASSGGAHTLV [KCNA3] are 4.06 ± 0.42 and 4.1 ± 0.45.
On the same counts, the results for PPTTPQNEEIRAVGRLKRERSMSE [MFF] are 4.82 ± 0.28 and 5.05 ± 0.14.
For PRAVFVLLEERRPADSAQLLSLNS [TFE3], in that order: 2.29 ± 0.12 and 2.4 ± 0.2.
In the case of PSETGNTFVSGGCDKKAMVWDMRS [GNB5], the protein stability index was 3.93 ± 0.16 (treatment: DMSO) and 3.75 ± 0.26 (treatment: MLN4924 1 uM, 8 h).
For the sequence PSFCPVQPCFFQDISMEIPQEFQK [SCAMP3], the protein stability index runs as follows: (treatment: DMSO) 3.64 ± 0.35; (treatment: MLN4924 1 uM, 8 h) 3.69 ± 0.21.
As to PTDYQVNIQIIEYEKKQTLGQNDT [BTBD1], the protein stability index is, setting by setting: (treatment: DMSO) 3.76 ± 0.27; (treatment: MLN4924 1 uM, 8 h) 3.91 ± 0.13.
On the same counts, the results for PTGRLPALVRWWNGIGAVLDFTHP [MYORG] are 2.15 ± 0.28 and 2.14 ± 0.033.
For PVSLSASQSWHTESLPVSLGPESW [BCL2L13], in that order: 3.37 ± 0.26 and 3.21 ± 0.11.
On the same counts, the results for PVTKPLFPSAGQAQAAVQGPVGTD [ZNF207] are 5.15 ± 0.17 and 5.05 ± 0.11.
As for PYSFIEFDTFIQKTKKLYIDSRAR [SEC22B], the protein stability index reads like this: (treatment: DMSO) 2.38 ± 0.12; (treatment: MLN4924 1 uM, 8 h) 2.41 ± 0.25.
For QALRRLRPRTRKVKSVSPQGNSVD [NCF4], in that order: 4.32 ± 0.46 and 4.63 ± 0.26.
For QAPPQDSSNKKEKKVLNHGYDDDN [DYRK1B], in that order: 5.61 ± 0.16 and 5.51 ± 0.11.
For QAREKELLELQSQQACTHTKETEQ [CCDC89], the protein stability index was determined as 5.55 ± 0.21 (treatment: DMSO) and 5.61 ± 0.17 (treatment: MLN4924 1 uM, 8 h).
On the same counts, the results for QASSERLGLDNRLFGHPGLDMELG [ADAMTSL2] are 3.87 ± 0.12 and 4.02 ± 0.5.
On the same counts, the results for QATCNVHKSAFNDWFSGHLNFQIE [FADS1] are 2.44 ± 0.28 and 2.48 ± 0.2.
On the same counts, the results for QCRHTLEQHNWNIEAAVQDRLNEQ [FAF2] are 3.89 ± 0.17 and 3.87 ± 0.18.
Consider QDHFHVFVGDLSPEITTEDIKAAF [TIA1], for which the protein stability index is 2.73 ± 0.54 (treatment: DMSO) and 3 ± 0.33 (treatment: MLN4924 1 uM, 8 h).
On the same counts, the results for QDLLKERQKDLKFLSEEEYWKLQI [CCNC] are 3.45 ± 0.13 and 3.67 ± 0.15.
With QELDIKKNERLWLLDDSKTWWRVR [NCK2], the protein stability index reads like this: (treatment: DMSO) 2.37 ± 0.14; (treatment: MLN4924 1 uM, 8 h) 2.61 ± 0.28.
For QEPMVPAKLGTQAEKDRRLKKKHQ [PPFIA4], in that order: 5.32 ± 0.42 and 5.56 ± 0.11.
For the sequence QEQNGRLQAELAAQEALREKAAAL [LRRC45], the protein stability index (treatment: DMSO) is 5.25 ± 0.21 and the protein stability index (treatment: MLN4924 1 uM, 8 h) was 5.31 ± 0.28.
For QETLTNISAVNYDFDEEYFSNTSE [DAPK3], in that order: 5.41 ± 0.26 and 5.41 ± 0.21.
For QFCAQRFGRKDHLTRHTKKTHSQE [PLAGL1], in that order: 4.07 ± 0.43 and 4.18 ± 0.27.
Turning to QFLFIYQLPFCGPNVIDNFLCDLY [OR4A15], the protein stability index reads like this: (treatment: DMSO) 3.04 ± 0.11; (treatment: MLN4924 1 uM, 8 h) 2.86 ± 0.38.
With QFPYVEFTGRDSITCLTCQGTGYI [TMEM106C], the protein stability index worked out at 2.93 ± 0.47 (treatment: DMSO) and 3.09 ± 0.52 (treatment: MLN4924 1 uM, 8 h).
For QGDPAFPEMNGNGAVAPMDFTTAA [NOL4L], in that order: 5.09 ± 0.2 and 4.98 ± 0.16.
Turning to QGKYECVATNSAGTRYSAPANLYV [PTPRD], the protein stability index was 2.9 ± 0.22 (treatment: DMSO) and 2.89 ± 0.64 (treatment: MLN4924 1 uM, 8 h).
On the same counts, the results for QGMEGIKVFLHERELWLKFHEVGT [TBX5] are 2.2 ± 0.14 and 2.17 ± 0.23.
As to QGQAAAPASGSGADSEPARHIFSF [TRIM55], the protein stability index is 3.76 ± 0.27 (treatment: DMSO) and 3.79 ± 0.3 (treatment: MLN4924 1 uM, 8 h).
For QHEEICLGLFTLILTEPAQAQKCY [INTS3], in that order: 2.24 ± 0.46 and 2.32 ± 0.41.
Take QKVDQFDPFTVPTISFICRELDAI [PRIM1]: the protein stability index was found to be 2.2 ± 0.24 (treatment: DMSO) and 2.31 ± 0.33 (treatment: MLN4924 1 uM, 8 h).
Sequence QLEKPPEKEEDHAPEFIKVRENLR [FAM107A] showed a protein stability index (treatment: DMSO) of 5.29 ± 0.23 and a protein stability index (treatment: MLN4924 1 uM, 8 h) of 5.32 ± 0.16.
Regarding QLENEQSQENSINPIQKEEDEGVD [SPANXN3], the protein stability index runs as follows: (treatment: DMSO) 5.56 ± 0.22; (treatment: MLN4924 1 uM, 8 h) 5.67 ± 0.2.
For QLHAKIDAAEEEKYDMEVRVQKTS [TNNI2], the protein stability index is, setting by setting: (treatment: DMSO) 5.27 ± 0.23; (treatment: MLN4924 1 uM, 8 h) 5.22 ± 0.24.
For QLHPPRWYSRLQACQWGGNFLAFS, in that order: 2.11 ± 0.45 and 2.26 ± 0.088.
Turning to QLRCEMEQQNQEYKILLDVKTRLE [KRT17], the protein stability index runs as follows: (treatment: DMSO) 3.63 ± 0.28; (treatment: MLN4924 1 uM, 8 h) 3.83 ± 0.098.
Consider QPRLSYAEMAEDYPRYPDIHDLDL [CLCN6], for which the protein stability index by setting is: (treatment: DMSO) 4.14 ± 0.27; (treatment: MLN4924 1 uM, 8 h) 4.24 ± 0.14.
Consider QQFVIAGVLVEDSNNHHLMLEASE [ZBED1], for which the protein stability index runs as follows: (treatment: DMSO) 3.5 ± 0.36; (treatment: MLN4924 1 uM, 8 h) 3.57 ± 0.43.
On the same counts, the results for QQKQQIMAALNSQTAVQFQQYAAQ [ACBD3] are 3.21 ± 0.17 and 3.27 ± 0.16.
For QQLVSFSESGSLGNSSGSDVTSLS [ISL2], in that order: 4.79 ± 0.19 and 4.72 ± 0.37.
QQSQGWVHYMIHEPEPHILLFRRP [CKS1B]: the protein stability index was 2.11 ± 0.35 (treatment: DMSO) and 1.96 ± 0.22 (treatment: MLN4924 1 uM, 8 h).
On to QQTKLEAEKLKVQALKDRGLSIPR [LSM1], for which the protein stability index is 4.12 ± 0.16 (treatment: DMSO) and 4.21 ± 0.075 (treatment: MLN4924 1 uM, 8 h).
For QRDSKRWSRLEEFDVFSPKQDLVP [DLC1], in that order: 3.63 ± 0.13 and 3.8 ± 0.21.
On the same counts, the results for QRISCFQSTVKCLTVLQRLDVWLS [WDR41] are 2.45 ± 0.35 and 2.41 ± 0.44.
For QRSVSDVASGSTPAPALCCAPYDS [IRX6], in that order: 4.8 ± 0.34 and 4.94 ± 0.085.
Turning to QSKPLLSAFADIIHSLKESGQLWL [FADS1], the protein stability index by setting is: (treatment: DMSO) 2.8 ± 0.4; (treatment: MLN4924 1 uM, 8 h) 2.87 ± 0.68.
QTFLDERTPRLMPDKESMYYPRVQ [GDAP1]: the protein stability index (treatment: DMSO) turned out to be 3.43 ± 0.32 and the protein stability index (treatment: MLN4924 1 uM, 8 h) came out at 3.41 ± 0.31.
For QTLRQELSLPYLPSGTPELEVPKP [CHIT1], in that order: 4.7 ± 0.15 and 4.69 ± 0.36.
For QVERMREVNSRCYQPEPFACGIEH [FBXO34], in that order: 2.53 ± 0.3 and 2.43 ± 0.34.
For the sequence QVPYPPRQLLRDFQSRLPYQYLHY [P3H4], the protein stability index by setting is: (treatment: DMSO) 2.45 ± 0.072; (treatment: MLN4924 1 uM, 8 h) 2.24 ± 0.35.
On the same counts, the results for QYESIAAKNLQEAEEWYKSKYADL [PRPH] are 4.76 ± 0.23 and 4.49 ± 0.21.
On the same counts, the results for QYYRTIEELQNKILTATVDNANIL [KRT17] are 2.22 ± 0.2 and 2.23 ± 0.2.
On the same counts, the results for RADKNDDGKLSFEEFKAYFADGVL [NECAB1] are 3.48 ± 0.3 and 3.58 ± 0.39.
In turn, RAINLLFDIARIERCNQLLRALKL [ZER1] came in with a protein stability index (treatment: DMSO) of 1.82 ± 0.16 and a protein stability index (treatment: MLN4924 1 uM, 8 h) of 2.08 ± 0.32.
Turning to RAKGLLGTTVTFDDLMGILCKSVL [FEM1C], the protein stability index (treatment: DMSO) stood at 2.76 ± 0.63 and the protein stability index (treatment: MLN4924 1 uM, 8 h) is 2.54 ± 0.22.
On the same counts, the results for RALARNLIFGLITCLTGVLGVGLG [SPNS1] are 2.28 ± 0.32 and 2.92 ± 0.81.
For RALESELQQLRARLQGLEADCVRG [PBXIP1], in that order: 3.47 ± 0.19 and 3.31 ± 0.13.
Regarding RASQREYEELRNSERAEVQRLEEQ [RSPH3], the protein stability index was 5.43 ± 0.27 (treatment: DMSO) and 5.3 ± 0.2 (treatment: MLN4924 1 uM, 8 h).
On the same counts, the results for RCNTTCGRGVKKRLVLCMELANGK [ADAMTSL2] are 3.22 ± 0.21 and 3 ± 0.13.
With RDASDPLAGAALEPAGGGRSREAR [SMAD6], the protein stability index (treatment: DMSO) was 5.39 ± 0.19 and the protein stability index (treatment: MLN4924 1 uM, 8 h) came out at 5.44 ± 0.2.
